Patent US20200262877A1, “ION CHANNEL-BINDING PEPTIDES AND METHODS OF USE THEREOF” (priority 2017, published 2020)

How the values were obtained:
5HT3a = target: T1, 5HT3a (Homo sapiens, UniProt P46098); assay: Ion channel panel (IonWorks Barracuda): 5HT3a; assay type: cell-based
T1 construct: host or cells: HEK293 or CHO
T1 sequence (P46098 whole entry, looked up): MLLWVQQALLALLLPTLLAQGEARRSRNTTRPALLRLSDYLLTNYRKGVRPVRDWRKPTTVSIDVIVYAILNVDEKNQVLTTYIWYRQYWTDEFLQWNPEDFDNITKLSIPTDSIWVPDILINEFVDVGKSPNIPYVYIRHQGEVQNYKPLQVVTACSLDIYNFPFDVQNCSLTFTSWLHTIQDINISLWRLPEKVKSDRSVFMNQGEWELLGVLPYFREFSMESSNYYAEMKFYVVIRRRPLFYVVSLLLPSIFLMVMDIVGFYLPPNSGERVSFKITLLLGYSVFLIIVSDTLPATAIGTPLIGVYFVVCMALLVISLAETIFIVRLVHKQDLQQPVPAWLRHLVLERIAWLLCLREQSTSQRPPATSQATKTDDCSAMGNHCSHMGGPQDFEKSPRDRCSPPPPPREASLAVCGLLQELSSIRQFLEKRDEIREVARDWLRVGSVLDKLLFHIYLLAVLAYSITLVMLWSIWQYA
Procedure, shortened: (§1)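 Peptides were tested in duplicate at final 20 μM and 200 nM, with concentration set by amino acid analysis, in HEPES-buffered saline. They were applied for at least 5 min to HEK293 or CHO cells transfected with each channel. Currents were expressed as % inhibition, 1-(Ipeptide/Icontrol)×100, or % activation, Ipeptide/Icontrol×100, against a channel-matched reference compound.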

α3β4 = target: T2, α3β4 (Homo sapiens, UniProt P30926+P32297); assay: Ion channel panel (IonWorks Barracuda): α3β4; assay type: cell-based; conditions: 100% = no change, <100% = inhibition
T2 construct: host or cells: HEK293 or CHO
Procedure, shortened: as §1

α4β2 = target: T3, α4β2 (Homo sapiens, UniProt P17787+P43681); assay: Ion channel panel (IonWorks Barracuda): α4β2; assay type: cell-based; conditions: 100% = no change, <100% = inhibition
T3 construct: host or cells: HEK293 or CHO
Procedure, shortened: as §1

Cav2.1 = target: T4, Cav2.1 (Homo sapiens, UniProt O00555); assay: cell-based; conditions: 100% = no change, <100% = inhibition
T4 construct: host or cells: HEK293 or CHO
Procedure, shortened: as §1

Cav2.2 = target: T5, Cav2.2 (Homo sapiens, UniProt Q00975); assay: cell-based; conditions: 100% = no change, <100% = inhibition
T5 construct: host or cells: HEK293 or CHO
Procedure, shortened: as §1

Kv2.1 = target: T6, Kv2.1 (Homo sapiens, UniProt Q14721); assay: cell-based; conditions: 100% = no change, <100% = inhibition
T6 construct: host or cells: HEK293 or CHO
Procedure, shortened: as §1

GABA = assay: Ion channel panel (IonWorks Barracuda): GABA; assay type: cell-based; conditions: 100% = no change, <100% = inhibition
Procedure, shortened: as §1

Nav1.5 = Nav1.5 (Homo sapiens, UniProt Q14524); assay: in vitro; conditions: 100% = no change; for Activity of Nav1.5 with peptide, expressed as a percentage of the reference compound: peptide at 0.2 μM; for Activity of Nav1.5 with peptide (percentage of the reference compound): peptide at 20 μM
Procedure, shortened: as §1

hERG = hERG (Homo sapiens, UniProt Q12809); assay: in vitro; conditions: 100% = no change, <100% = inhibition
Procedure, shortened: as §1

Kir2.1 = target: T7, Kir2.1 (Homo sapiens, UniProt P63252); assay: Ion channel panel (IonWorks Barracuda): Kir2.1; assay type: cell-based; conditions: 100% = no change, <100% = inhibition
T7 construct: host or cells: HEK293 or CHO
Procedure, shortened: as §1

Kv1.1 = target: T8, Kv1.1 (Homo sapiens, UniProt Q09470); assay: cell-based; assay type: cell-based; conditions: 100% = no change, <100% = inhibition
T8 construct: host or cells: HEK293 or CHO
Procedure, shortened: as §1

Kv1.2 = target: T9, Kv1.2 (Homo sapiens, UniProt P16389); assay: cell-based; assay type: cell-based; conditions: 100% = no change, <100% = inhibition
T9 construct: host or cells: HEK293 or CHO
Procedure, shortened: as §1

Kv1.3 = target: T10, Kv1.3 (Homo sapiens, UniProt P22001); assay: cell-based; assay type: cell-based; conditions: 100% = no change, <100% = inhibition
T10 construct: host or cells: HEK293 or CHO
Procedure, shortened: as §1

Nav1.7 = target: T11, Nav1.7 (Homo sapiens, UniProt Q15858); assay: cell-based; assay type: cell-based; conditions: 100% = no change; for Activity of Nav1.7 with peptide, expressed as a percentage of the reference compound: peptide at 0.2 μM; for Activity of Nav1.7 with peptide (percentage of the reference compound): peptide at 20 μM
T11 construct: host or cells: HEK293 or CHO

NR2A = target: T12, NR2A (Homo sapiens, UniProt Q12879); assay: Ion channel panel (IonWorks Barracuda): NR2A; assay type: cell-based; conditions: 100% = no change, <100% = inhibition
T12 construct: host or cells: HEK293 or CHO
Procedure, shortened: as §1

NR2B = target: T13, NR2B (Homo sapiens, UniProt Q13224); assay: Ion channel panel (IonWorks Barracuda): NR2B; assay type: cell-based; conditions: 100% = no change, <100% = inhibition
T13 construct: host or cells: HEK293 or CHO
Procedure, shortened: as §1

TRPA1 = target: T14, TRPA1 (Homo sapiens, UniProt O75762); assay: Ion channel panel (IonWorks Barracuda): TRPA1; assay type: cell-based; conditions: 100% = no change, <100% = inhibition
T14 construct: host or cells: HEK293 or CHO
Procedure, shortened: as §1

TRPV1 = target: T15, TRPV1 (Homo sapiens, UniProt Q8NER1); assay: Ion channel panel (IonWorks Barracuda): TRPV1; assay type: cell-based; conditions: 100% = no change, <100% = inhibition
T15 construct: host or cells: HEK293 or CHO
Procedure, shortened: as §1

[1] = first of two Nav1.5 columns (probably TP1)
[2] = second of two Nav1.5 columns (probably TP2)
[3] = first of two Nav1.7 columns (probably TP1)
[4] = second of two Nav1.7 columns (probably TP2)

Chain of Nav1.5 (Q14524 whole entry): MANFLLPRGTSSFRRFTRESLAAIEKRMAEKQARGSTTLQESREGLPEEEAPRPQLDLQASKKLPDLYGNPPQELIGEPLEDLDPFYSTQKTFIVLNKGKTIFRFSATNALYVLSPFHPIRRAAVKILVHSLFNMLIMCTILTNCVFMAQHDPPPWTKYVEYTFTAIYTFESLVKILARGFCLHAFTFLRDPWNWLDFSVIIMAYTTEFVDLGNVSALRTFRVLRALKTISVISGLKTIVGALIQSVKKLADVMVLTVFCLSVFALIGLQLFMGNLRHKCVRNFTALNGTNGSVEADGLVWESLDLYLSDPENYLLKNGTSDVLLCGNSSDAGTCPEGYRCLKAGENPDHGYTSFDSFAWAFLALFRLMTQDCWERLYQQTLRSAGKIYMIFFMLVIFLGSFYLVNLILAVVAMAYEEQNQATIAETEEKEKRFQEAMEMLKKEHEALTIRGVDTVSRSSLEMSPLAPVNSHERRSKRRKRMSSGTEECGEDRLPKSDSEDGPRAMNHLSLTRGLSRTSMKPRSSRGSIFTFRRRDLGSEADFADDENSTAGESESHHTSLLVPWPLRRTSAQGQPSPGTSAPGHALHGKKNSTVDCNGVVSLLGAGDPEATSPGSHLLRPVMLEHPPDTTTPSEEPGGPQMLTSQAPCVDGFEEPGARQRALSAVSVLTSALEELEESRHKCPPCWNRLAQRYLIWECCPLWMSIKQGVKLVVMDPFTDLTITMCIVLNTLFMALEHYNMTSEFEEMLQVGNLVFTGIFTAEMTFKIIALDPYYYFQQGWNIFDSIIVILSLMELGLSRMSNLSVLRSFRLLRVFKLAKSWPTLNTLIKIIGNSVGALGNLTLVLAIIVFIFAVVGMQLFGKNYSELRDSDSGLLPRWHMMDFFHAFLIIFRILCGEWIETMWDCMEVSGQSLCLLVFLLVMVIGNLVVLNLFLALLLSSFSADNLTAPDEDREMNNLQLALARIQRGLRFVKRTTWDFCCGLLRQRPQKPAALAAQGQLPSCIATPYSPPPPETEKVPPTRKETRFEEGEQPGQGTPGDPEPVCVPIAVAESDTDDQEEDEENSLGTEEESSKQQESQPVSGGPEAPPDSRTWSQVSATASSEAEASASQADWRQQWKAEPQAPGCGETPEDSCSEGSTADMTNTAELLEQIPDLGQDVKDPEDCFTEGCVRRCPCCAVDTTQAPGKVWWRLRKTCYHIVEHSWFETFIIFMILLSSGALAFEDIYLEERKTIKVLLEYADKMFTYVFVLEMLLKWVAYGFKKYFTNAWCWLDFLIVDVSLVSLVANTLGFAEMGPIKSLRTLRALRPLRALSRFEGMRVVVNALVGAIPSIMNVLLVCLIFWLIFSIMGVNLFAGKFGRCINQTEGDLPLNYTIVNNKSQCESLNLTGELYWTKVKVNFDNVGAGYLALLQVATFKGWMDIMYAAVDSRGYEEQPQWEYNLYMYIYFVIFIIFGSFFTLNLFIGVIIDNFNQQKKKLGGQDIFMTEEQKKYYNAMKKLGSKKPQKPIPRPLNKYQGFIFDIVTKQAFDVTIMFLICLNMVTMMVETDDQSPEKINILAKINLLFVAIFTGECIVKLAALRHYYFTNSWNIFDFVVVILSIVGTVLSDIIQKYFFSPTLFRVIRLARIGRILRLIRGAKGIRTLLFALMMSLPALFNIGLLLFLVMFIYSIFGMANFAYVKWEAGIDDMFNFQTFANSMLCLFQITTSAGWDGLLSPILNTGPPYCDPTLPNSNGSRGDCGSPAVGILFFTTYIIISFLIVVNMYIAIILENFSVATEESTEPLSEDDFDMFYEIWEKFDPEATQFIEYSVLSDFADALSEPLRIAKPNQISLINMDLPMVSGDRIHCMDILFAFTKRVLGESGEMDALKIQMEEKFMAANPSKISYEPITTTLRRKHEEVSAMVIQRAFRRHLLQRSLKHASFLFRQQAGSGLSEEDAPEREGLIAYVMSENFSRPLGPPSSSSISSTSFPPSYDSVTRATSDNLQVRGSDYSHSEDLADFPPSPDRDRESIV
T11 sequence (Q15858 whole entry): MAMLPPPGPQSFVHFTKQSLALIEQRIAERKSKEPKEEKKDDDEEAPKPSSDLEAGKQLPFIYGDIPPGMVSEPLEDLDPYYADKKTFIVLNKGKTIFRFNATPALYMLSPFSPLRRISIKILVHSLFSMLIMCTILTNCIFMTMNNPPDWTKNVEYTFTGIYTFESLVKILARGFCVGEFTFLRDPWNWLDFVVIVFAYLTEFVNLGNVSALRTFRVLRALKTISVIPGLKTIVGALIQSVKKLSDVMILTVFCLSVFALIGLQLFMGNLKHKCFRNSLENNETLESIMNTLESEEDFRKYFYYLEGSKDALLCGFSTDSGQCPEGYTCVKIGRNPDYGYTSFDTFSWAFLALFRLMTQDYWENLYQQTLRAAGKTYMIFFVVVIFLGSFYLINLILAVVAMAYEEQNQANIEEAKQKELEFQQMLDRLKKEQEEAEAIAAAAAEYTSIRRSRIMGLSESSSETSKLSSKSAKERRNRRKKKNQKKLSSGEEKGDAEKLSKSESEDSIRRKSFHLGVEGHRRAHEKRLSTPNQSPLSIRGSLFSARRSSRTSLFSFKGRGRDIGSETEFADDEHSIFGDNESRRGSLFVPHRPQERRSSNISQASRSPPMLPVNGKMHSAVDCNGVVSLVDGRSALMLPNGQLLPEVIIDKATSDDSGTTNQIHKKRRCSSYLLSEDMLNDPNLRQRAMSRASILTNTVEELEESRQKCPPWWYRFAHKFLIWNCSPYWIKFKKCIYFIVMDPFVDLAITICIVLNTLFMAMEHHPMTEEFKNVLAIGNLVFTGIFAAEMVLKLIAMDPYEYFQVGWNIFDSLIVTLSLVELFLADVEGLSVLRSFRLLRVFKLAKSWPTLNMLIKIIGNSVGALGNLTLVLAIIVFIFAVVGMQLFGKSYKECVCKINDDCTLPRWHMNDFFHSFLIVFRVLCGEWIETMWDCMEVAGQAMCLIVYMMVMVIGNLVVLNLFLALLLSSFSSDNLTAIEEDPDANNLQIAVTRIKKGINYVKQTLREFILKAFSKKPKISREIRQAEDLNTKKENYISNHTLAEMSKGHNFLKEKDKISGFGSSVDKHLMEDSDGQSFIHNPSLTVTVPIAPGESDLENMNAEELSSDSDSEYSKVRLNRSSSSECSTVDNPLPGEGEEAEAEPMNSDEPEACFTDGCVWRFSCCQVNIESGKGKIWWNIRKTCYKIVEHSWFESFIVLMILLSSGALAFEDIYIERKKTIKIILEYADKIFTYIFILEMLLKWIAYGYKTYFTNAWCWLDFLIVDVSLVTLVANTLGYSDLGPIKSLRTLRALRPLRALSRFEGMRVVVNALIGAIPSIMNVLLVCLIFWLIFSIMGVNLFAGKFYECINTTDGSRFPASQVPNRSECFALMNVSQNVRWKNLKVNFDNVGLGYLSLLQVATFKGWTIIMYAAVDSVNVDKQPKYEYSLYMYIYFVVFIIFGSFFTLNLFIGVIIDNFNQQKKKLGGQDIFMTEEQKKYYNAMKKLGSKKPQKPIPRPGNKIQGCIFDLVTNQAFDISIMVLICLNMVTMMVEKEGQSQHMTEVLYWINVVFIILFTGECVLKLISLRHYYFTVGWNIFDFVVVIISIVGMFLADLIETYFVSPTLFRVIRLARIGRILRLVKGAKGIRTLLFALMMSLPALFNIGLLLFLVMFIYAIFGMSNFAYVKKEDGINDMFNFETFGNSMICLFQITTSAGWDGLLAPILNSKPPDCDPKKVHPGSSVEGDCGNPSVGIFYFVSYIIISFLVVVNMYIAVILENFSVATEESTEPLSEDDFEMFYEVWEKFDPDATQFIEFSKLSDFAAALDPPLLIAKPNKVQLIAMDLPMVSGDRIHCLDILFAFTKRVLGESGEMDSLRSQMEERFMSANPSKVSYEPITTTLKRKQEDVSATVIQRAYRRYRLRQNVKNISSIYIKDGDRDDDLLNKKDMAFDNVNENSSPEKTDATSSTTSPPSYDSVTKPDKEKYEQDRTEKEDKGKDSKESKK
T3 sequence (P43681 29-627): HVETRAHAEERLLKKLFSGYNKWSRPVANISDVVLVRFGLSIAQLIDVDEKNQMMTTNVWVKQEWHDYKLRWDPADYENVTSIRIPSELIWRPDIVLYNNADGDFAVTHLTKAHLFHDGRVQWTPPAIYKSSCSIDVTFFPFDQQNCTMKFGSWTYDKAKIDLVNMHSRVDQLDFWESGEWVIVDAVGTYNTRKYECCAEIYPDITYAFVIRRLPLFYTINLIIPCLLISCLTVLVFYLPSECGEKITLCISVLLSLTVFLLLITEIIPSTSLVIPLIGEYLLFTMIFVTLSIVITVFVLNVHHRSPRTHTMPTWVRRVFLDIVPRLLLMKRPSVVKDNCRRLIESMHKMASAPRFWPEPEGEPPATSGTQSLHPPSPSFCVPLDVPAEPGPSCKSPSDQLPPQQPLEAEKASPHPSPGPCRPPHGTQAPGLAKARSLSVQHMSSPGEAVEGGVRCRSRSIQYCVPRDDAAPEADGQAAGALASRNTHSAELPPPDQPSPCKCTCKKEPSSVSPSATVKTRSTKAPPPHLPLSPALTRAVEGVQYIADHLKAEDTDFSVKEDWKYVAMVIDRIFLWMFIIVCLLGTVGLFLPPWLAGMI
T3 sequence (P17787 26-502): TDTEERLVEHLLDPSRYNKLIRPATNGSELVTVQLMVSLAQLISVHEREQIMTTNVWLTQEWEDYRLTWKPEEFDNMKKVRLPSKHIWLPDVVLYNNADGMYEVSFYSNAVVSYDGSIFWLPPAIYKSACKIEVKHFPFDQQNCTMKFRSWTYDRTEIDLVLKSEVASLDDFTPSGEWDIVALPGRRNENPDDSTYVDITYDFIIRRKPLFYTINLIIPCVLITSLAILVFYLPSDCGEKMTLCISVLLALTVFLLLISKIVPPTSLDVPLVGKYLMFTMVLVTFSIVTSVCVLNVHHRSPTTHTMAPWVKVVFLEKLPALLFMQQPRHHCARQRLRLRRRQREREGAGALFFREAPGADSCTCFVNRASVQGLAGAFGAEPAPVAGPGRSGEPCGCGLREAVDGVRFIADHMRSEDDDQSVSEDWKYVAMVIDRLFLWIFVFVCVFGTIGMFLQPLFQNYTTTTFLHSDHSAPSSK

18 (GSNCAGYMRECKEKLCCSGYVCSSRWKWCVLPAPWRR) [compound 18]
Activity of 5HT3a with peptide (percentage of the reference compound) (5HT3a): 79% | Activity of 5HT3a with peptide, expressed as a percentage of the reference compound (5HT3a): 95% | Activity of a3b4 with peptide, expressed as a percentage of the reference compound (α3β4; peptide at 0.2 μM): 110% | Activity of a3b4 with peptide (percentage of the reference compound) (α3β4; peptide at 20 μM): 89% | Activity of a4b2 with peptide, expressed as a percentage of the reference compound (α4β2; peptide at 0.2 μM): 109% | Activity of a4b2 with peptide (percentage of the reference compound) (α4β2; peptide at 20 μM): 92% | Activity of Cav2.1 with peptide, expressed as a percentage of the reference compound (Cav2.1; peptide at 0.2 μM): 97% | Activity of Cav2.1 with peptide (percentage of the reference compound) (Cav2.1; peptide at 20 μM): 98% | Activity of Cav2.2 with peptide, expressed as a percentage of the reference compound (Cav2.2; peptide at 0.2 μM): 132% | Activity of Cav2.2 with peptide (percentage of the reference compound) (Cav2.2; peptide at 20 μM): 124% | Activity of Kv2.1 with peptide, expressed as a percentage of the reference compound (Kv2.1; peptide at 0.2 μM): 93% | Activity of Kv2.1 with peptide (percentage of the reference compound) (Kv2.1; peptide at 20 μM): 65% | Activity of GABA with peptide, expressed as a percentage of the reference compound (GABA; peptide at 0.2 μM): 113% | Activity of GABA with peptide (percentage of the reference compound) (GABA; peptide at 20 μM): 106% | Activity of Nav1.5 with peptide, expressed as a percentage of the reference compound (Nav1.5; [1]): 104% | Activity of Nav1.5 with peptide, expressed as a percentage of the reference compound (Nav1.5; [2]): 106% | Activity of Nav1.5 with peptide (percentage of the reference compound) (Nav1.5; [1]): 87% | Activity of Nav1.5 with peptide (percentage of the reference compound) (Nav1.5; [2]): 112% | Activity of hERG with peptide, expressed as a percentage of the reference compound (hERG; peptide at 0.2 μM): 98% | Activity of hERG with peptide (percentage of the reference compound) (hERG; peptide at 20 μM): 62% | Activity of Kir2.1 with peptide, expressed as a percentage of the reference compound (Kir2.1; peptide at 0.2 μM): 104% | Activity of Kir2.1 with peptide (percentage of the reference compound) (Kir2.1; peptide at 20 μM): 93% | Activity of Kv1.1 with peptide, expressed as a percentage of the reference compound (Kv1.1; peptide at 0.2 μM): 98% | Activity of Kv1.1 with peptide (percentage of the reference compound) (Kv1.1; peptide at 20 μM): 78% | Activity of Kv1.2 with peptide, expressed as a percentage of the reference compound (Kv1.2; peptide at 0.2 μM): 67% | Activity of Kv1.2 with peptide (percentage of the reference compound) (Kv1.2; peptide at 20 μM): 30% | Activity of Kv1.3 with peptide, expressed as a percentage of the reference compound (Kv1.3; peptide at 0.2 μM): 87% | Activity of Kv1.3 with peptide (percentage of the reference compound) (Kv1.3; peptide at 20 μM): 7% | Activity of Nav1.7 with peptide, expressed as a percentage of the reference compound (Nav1.7; [3]): 85% | Activity of Nav1.7 with peptide, expressed as a percentage of the reference compound (Nav1.7; [4]): 84% | Activity of Nav1.7 with peptide (percentage of the reference compound) (Nav1.7; [3]): 43% | Activity of Nav1.7 with peptide (percentage of the reference compound) (Nav1.7; [4]): 55% | Activity of NR2A with peptide, expressed as a percentage of the reference compound (NR2A; peptide at 0.2 μM): 98% | Activity of NR2A with peptide (percentage of the reference compound) (NR2A; peptide at 20 μM): 79% | Activity of NR2B with peptide, expressed as a percentage of the reference compound (NR2B; peptide at 0.2 μM): 107% | Activity of NR2B with peptide (percentage of the reference compound) (NR2B; peptide at 20 μM): 78% | Activity of TRPA1 with peptide, expressed as a percentage of the reference compound (TRPA1; peptide at 0.2 μM): 130% | Activity of TRPA1 with peptide (percentage of the reference compound) (TRPA1; peptide at 20 μM): 89% | Activity of TRPV1 with peptide, expressed as a percentage of the reference compound (TRPV1; peptide at 0.2 μM): 93% | Activity of TRPV1 with peptide (percentage of the reference compound) (TRPV1; peptide at 20 μM): 61%
